Measurements as given in the supplement of paper PMC10567573.

B1: SMTNL2 (parent)
chain: AFTMAENLANCERLIEVEDMMVMG

Variants of: B1
Assay: protein stability index of a GFP-peptide fusion (GPS, HEK-293T) (PSI 1-6); higher = more stable
Conditions: c terminus: a fixed tail appended
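Note: lentivirally expressed fusions sorted by FACS into six bins by GFP to DsRed ratio, PSI derived from sequencing read proportions per bin multiplied by bin number.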

Variant	protein stability index
AFTMAENLANCWRLIEVEDMMVMG [E12W]	2.71
AFTMAENLANCYRLIEVEDMMVMG [E12Y]	2.13
AFTMAENLANCEALIEVEDMMVMG [R13A]	2.33
AFTMAENLANCECLIEVEDMMVMG [R13C]	2.08
AFTMAENLANCEDLIEVEDMMVMG [R13D]	4.24
AFTMAENLANCEELIEVEDMMVMG [R13E]	3.96
AFTMAENLANCEFLIEVEDMMVMG [R13F]	1.8
AFTMAENLANCEGLIEVEDMMVMG [R13G]	3.46
AFTMAENLANCEHLIEVEDMMVMG [R13H]	3.03
AFTMAENLANCEKLIEVEDMMVMG [R13K]	2.67
AFTMAENLANCELLIEVEDMMVMG [R13L]	3.24
AFTMAENLANCEMLIEVEDMMVMG [R13M]	2.56
AFTMAENLANCENLIEVEDMMVMG [R13N]	3.75
AFTMAENLANCEPLIEVEDMMVMG [R13P]	3.62
AFTMAENLANCEQLIEVEDMMVMG [R13Q]	3.17
AFTMAENLANCESLIEVEDMMVMG [R13S]	3.15
AFTMAENLANCETLIEVEDMMVMG [R13T]	2.99
AFTMAENLANCEVLIEVEDMMVMG [R13V]	1.49
AFTMAENLANCEWLIEVEDMMVMG [R13W]	2.42
AFTMAENLANCEYLIEVEDMMVMG [R13Y]	2.17
AFTMAENLANCERAIEVEDMMVMG [L14A]	3.33
AFTMAENLANCERCIEVEDMMVMG [L14C]	3.33
AFTMAENLANCERDIEVEDMMVMG [L14D]	4.59
AFTMAENLANCEREIEVEDMMVMG [L14E]	3.64

Variant	protein stability index
AFTMAENLANCERFIEVEDMMVMG [L14F]	2.62
AFTMAENLANCERGIEVEDMMVMG [L14G]	3.96
AFTMAENLANCERHIEVEDMMVMG [L14H]	3.86
AFTMAENLANCERIIEVEDMMVMG [L14I]	1.87
AFTMAENLANCERKIEVEDMMVMG [L14K]	3.89
AFTMAENLANCERMIEVEDMMVMG [L14M]	2.34
AFTMAENLANCERNIEVEDMMVMG [L14N]	4.2
AFTMAENLANCERPIEVEDMMVMG [L14P]	3.69
AFTMAENLANCERQIEVEDMMVMG [L14Q]	3.12
AFTMAENLANCERRIEVEDMMVMG [L14R]	3.4
AFTMAENLANCERSIEVEDMMVMG [L14S]	3.08
AFTMAENLANCERTIEVEDMMVMG [L14T]	3.5
AFTMAENLANCERVIEVEDMMVMG [L14V]	2.47
AFTMAENLANCERWIEVEDMMVMG [L14W]	1.59
AFTMAENLANCERYIEVEDMMVMG [L14Y]	2.13
AFTMAENLANCERLAEVEDMMVMG [I15A]	4
AFTMAENLANCERLCEVEDMMVMG [I15C]	3.64
AFTMAENLANCERLDEVEDMMVMG [I15D]	4.49
AFTMAENLANCERLEEVEDMMVMG [I15E]	4.99
AFTMAENLANCERLFEVEDMMVMG [I15F]	3.39
AFTMAENLANCERLGEVEDMMVMG [I15G]	3.77
AFTMAENLANCERLHEVEDMMVMG [I15H]	3.95
AFTMAENLANCERLKEVEDMMVMG [I15K]	3.9
AFTMAENLANCERLLEVEDMMVMG [I15L]	2.82

Variant	protein stability index
AFTMAENLANCERLMEVEDMMVMG [I15M]	3
AFTMAENLANCERLNEVEDMMVMG [I15N]	3.94
AFTMAENLANCERLPEVEDMMVMG [I15P]	4.02
AFTMAENLANCERLQEVEDMMVMG [I15Q]	4.4
AFTMAENLANCERLREVEDMMVMG [I15R]	3.89
AFTMAENLANCERLSEVEDMMVMG [I15S]	3.6
AFTMAENLANCERLTEVEDMMVMG [I15T]	4.25
AFTMAENLANCERLVEVEDMMVMG [I15V]	3.42
AFTMAENLANCERLWEVEDMMVMG [I15W]	2.8
AFTMAENLANCERLYEVEDMMVMG [I15Y]	2.95
AFTMAENLANCERLIAVEDMMVMG [E16A]	1.99
AFTMAENLANCERLICVEDMMVMG [E16C]	1.9
AFTMAENLANCERLIDVEDMMVMG [E16D]	3.2
AFTMAENLANCERLIFVEDMMVMG [E16F]	2.14
AFTMAENLANCERLIGVEDMMVMG [E16G]	2.62
AFTMAENLANCERLIHVEDMMVMG [E16H]	1.97
AFTMAENLANCERLIKVEDMMVMG [E16K]	1.89
AFTMAENLANCERLIMVEDMMVMG [E16M]	2.92
AFTMAENLANCERLINVEDMMVMG [E16N]	2.17
AFTMAENLANCERLIPVEDMMVMG [E16P]	2.79
AFTMAENLANCERLIQVEDMMVMG [E16Q]	1.48
AFTMAENLANCERLIRVEDMMVMG [E16R]	1.83
AFTMAENLANCERLISVEDMMVMG [E16S]	1.89
AFTMAENLANCERLITVEDMMVMG [E16T]	1.72

Variant	protein stability index
AFTMAENLANCERLIYVEDMMVMG [E16Y]	1.94
AFTMAENLANCERLIEAEDMMVMG [V17A]	2.54
AFTMAENLANCERLIECEDMMVMG [V17C]	1.98
AFTMAENLANCERLIEDEDMMVMG [V17D]	3.57
AFTMAENLANCERLIEEEDMMVMG [V17E]	2.97
AFTMAENLANCERLIEFEDMMVMG [V17F]	2.37
AFTMAENLANCERLIEGEDMMVMG [V17G]	3.71
AFTMAENLANCERLIEHEDMMVMG [V17H]	2.35
AFTMAENLANCERLIEIEDMMVMG [V17I]	2.16
AFTMAENLANCERLIEKEDMMVMG [V17K]	2.38
AFTMAENLANCERLIELEDMMVMG [V17L]	3.28
AFTMAENLANCERLIEMEDMMVMG [V17M]	2.04
AFTMAENLANCERLIENEDMMVMG [V17N]	2.07
AFTMAENLANCERLIEPEDMMVMG [V17P]	4.04
AFTMAENLANCERLIEQEDMMVMG [V17Q]	2.43
AFTMAENLANCERLIEREDMMVMG [V17R]	2.88
AFTMAENLANCERLIESEDMMVMG [V17S]	3.25
AFTMAENLANCERLIETEDMMVMG [V17T]	3.14
AFTMAENLANCERLIEWEDMMVMG [V17W]	2.09
AFTMAENLANCERLIEYEDMMVMG [V17Y]	2.47
AFTMAENLANCERLIEVDDMMVMG [E18D]	2.9
AFTMAENLANCERLIEVFDMMVMG [E18F]	3.08
